Experiment [1] addresses T1, human IL-11 (human, UniProt P20809 22-199).
T1 sequence: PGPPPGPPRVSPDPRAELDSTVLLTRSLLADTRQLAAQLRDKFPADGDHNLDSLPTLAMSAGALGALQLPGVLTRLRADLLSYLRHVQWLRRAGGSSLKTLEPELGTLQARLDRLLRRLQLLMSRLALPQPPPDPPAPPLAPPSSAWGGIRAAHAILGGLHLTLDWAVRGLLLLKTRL
Nature of the experiment: cell-based or functional assay.

Experiment [2] addresses T2, murine IL-11 (mouse, UniProt P47873 22-199).
T2 sequence: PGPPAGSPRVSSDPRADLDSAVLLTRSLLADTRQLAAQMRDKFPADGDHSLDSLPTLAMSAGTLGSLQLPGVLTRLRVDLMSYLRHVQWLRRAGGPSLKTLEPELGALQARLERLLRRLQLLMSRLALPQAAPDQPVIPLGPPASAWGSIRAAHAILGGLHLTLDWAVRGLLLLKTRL
Nature of the experiment: cell-based or functional assay.

The target in experiment [3] is T1, human IL-11. Nature of the experiment: SPR, antibody captured, IL-11 as analyte. For orientation: Surface plasmon resonance follows binding to a sensor surface in real time, without labels.
Experiment [4] deals with T2, murine IL-11. Nature of the experiment: SPR, antibody captured, IL-11 as analyte.
The next experiment deals with T3, cynomolgus IL-11 (cynomolgus, UniProt P20808 22-199).
T3 construct: Invigate, lot #C290621-19; also called cIL11; cynoL-11
T3 sequence: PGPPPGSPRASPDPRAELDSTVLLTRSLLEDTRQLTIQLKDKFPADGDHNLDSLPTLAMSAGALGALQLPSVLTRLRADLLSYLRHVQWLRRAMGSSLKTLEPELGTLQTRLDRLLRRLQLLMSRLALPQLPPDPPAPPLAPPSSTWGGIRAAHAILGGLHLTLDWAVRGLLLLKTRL
Nature of the experiment: SPR, antibody captured, IL-11 as analyte.

For the next experiment, the target named is T4, rat IL-11 (rat, UniProt Q99MF5 22-199).
T4 construct: Invigate, e.g. lot #C301019-19; also called rIL11
T4 sequence: T2 sequence with S50N, L84F, G94A, V137A, I138V
Nature of the experiment: SPR, antibody captured, IL-11 as analyte.

A word on the Kd: it is the constant that tells how readily two partners part at equilibrium. The low end stands for higher affinity, the high end for lower affinity.

Changes are numbered by the printed parent chain.

B1: TPP-29391 (antibody, human IgG1, V domains shown)
VH: EVQLLESGGGLVQPGGSLRLSCAASGFTFSSYGMHWVRQAPGKGLEWVAVISYDGSYKYYADSVKGRFTISRDNSKNTLYLQMNSLRAEDTAVYYCAAGVPDYWGQGTLVTVSS
VL: QSVLTQPPSASGTPGQRVTISCSGSSSNIGSDYDVHWYQQLPGTAPKLLIYSNNERPSGVPDRFSGSKSGTSASLAISGLRSEDEADYYCAAWDSSLYGPVFGGGTKLTVL
B1: the “RGA Efficacy (%)” value was 84% with human IL-11 [1] and 96.9% in the experiment with murine IL-11 [2]. In addition, the “RGA IC50” value with human IL-11 [1] was 0.54 nM. Further, the Kd with human IL-11 [3] stood at 0.36 nM; in the experiment with murine IL-11 [4], 0.17 nM; with cynomolgus IL-11, 0.69 nM; with rat IL-11, 0.071 nM.

B2: TPP-29384 (antibody, human IgG1, V domains shown)
VH: B1 VH
VL: B1 VL with D32G, N54E, S95P, Y98S
In the case of B2, the results for the “RGA Efficacy (%)” value in the experiment with human IL-11 [1] and in the experiment with murine IL-11 [2] were 81.9% and 97.2%, respectively. Further, the “RGA IC50” value stood at 2.8 nM in the experiment with human IL-11 [1] and 0.33 nM in the experiment with murine IL-11 [2]. In addition, the dissociation constant (Kd) in the experiment with human IL-11 [3] was 0.98 nM; in the experiment with murine IL-11 [4], 0.3 nM; with cynomolgus IL-11, 0.86 nM; with rat IL-11, 0.18 nM.

B3: TPP-29403 (antibody, human IgG1, V domains shown)
VH: B1 VH with M34G, V50L
VL: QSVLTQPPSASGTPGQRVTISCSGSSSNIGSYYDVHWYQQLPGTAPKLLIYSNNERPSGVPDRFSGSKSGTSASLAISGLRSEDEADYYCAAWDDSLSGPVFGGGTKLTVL
For B3, the figures for the “RGA Efficacy (%)” value with human IL-11 [1] and with murine IL-11 [2] were 82.4% and 94.3%, respectively. In addition, the “RGA IC50” value with human IL-11 [1] is 1.7 nM; with murine IL-11 [2], 0.27 nM. For the same molecule, the equilibrium dissociation constant (Kd) with human IL-11 [3] was found to be 0.77 nM; with murine IL-11 [4], 0.18 nM; in the experiment with cynomolgus IL-11, 0.26 nM; with rat IL-11, 0.11 nM.

B4: TPP-29383 (antibody, human IgG1, V domains shown)
VH: B1 VH
VL: B1 VL with Y33L, N54E, S95P
Consider B4, for which the figures for the “RGA Efficacy (%)” value with human IL-11 [1] and in the experiment with murine IL-11 [2] were 86% and 94.2%, respectively. Also, the entries for the “RGA IC50” value with human IL-11 [1] and in the experiment with murine IL-11 [2] were 1.6 nM and 0.57 nM, respectively. The Kd was found to be 1.1 nM in the experiment with human IL-11 [3], 0.62 nM with murine IL-11 [4], 1.3 nM with cynomolgus IL-11 and 0.31 nM with rat IL-11.

B5: TPP-29402 (antibody, human IgG1, V domains shown)
VH: B1 VH with M34G, V50L
VL: B1 VL with D32G, Y33L, N54E
As to B5, the “RGA Efficacy (%)” value amounted to 80.7% with human IL-11 [1] and 95.5% with murine IL-11 [2]. In addition, the entries for the “RGA IC50” value with human IL-11 [1] and with murine IL-11 [2] were 0.53 nM and 0.19 nM, respectively. In addition, the Kd in the experiment with human IL-11 [3] was 0.19 nM; in the experiment with murine IL-11 [4], 0.045 nM; with cynomolgus IL-11 it was 0.32 nM; with rat IL-11, 0.018 nM.

B6: TPP-29401 (antibody, human IgG1, V domains shown)
VH: B1 VH with M34G
VL: B1 VL with D32Y, N54E, S95D, Y98S
As to B6, the “RGA Efficacy (%)” value worked out at 83.3% with human IL-11 [1] and 96.9% in the experiment with murine IL-11 [2]. Moreover, the entries for the “RGA IC50” value in the experiment with human IL-11 [1] and with murine IL-11 [2] were 1.3 nM and 0.15 nM, respectively. In addition, the Kd with human IL-11 [3] amounted to 0.69 nM; with murine IL-11 [4], 0.11 nM; in the experiment with cynomolgus IL-11, 0.23 nM; with rat IL-11, 0.058 nM.

B7: TPP-29400 (antibody, human IgG1, V domains shown)
VH: B1 VH with M34G, V50L
VL: B1 VL with S95F, Y98S
As to B7, the “RGA Efficacy (%)” value in the experiment with human IL-11 [1] turned out to be 59.6%; with murine IL-11 [2], 87.3%. For the same molecule, the “RGA IC50” value with human IL-11 [1] worked out at 0.46 nM. Besides, the Kd in the experiment with human IL-11 [3] amounted to 0.5 nM; in the experiment with murine IL-11 [4], 0.96 nM; with cynomolgus IL-11, 0.35 nM; with rat IL-11 it was 0.75 nM.

B8: TPP-29399 (antibody, human IgG1, V domains shown)
VH: B1 VH
VL: B1 VL with Y98S
Consider B8, for which the “RGA Efficacy (%)” value with human IL-11 [1] was 70.2%; with murine IL-11 [2], 90%. Moreover, the “RGA IC50” value with human IL-11 [1] is 0.73 nM. Also, the Kd with human IL-11 [3] came to 0.56 nM; with murine IL-11 [4], 0.93 nM; in the experiment with cynomolgus IL-11 it was 0.57 nM; with rat IL-11 it was 0.53 nM.

B9: TPP-29382 (antibody, human IgG1, V domains shown)
VH: B1 VH
VL: B1 VL with Y33L, S95F
Take B9: the “RGA Efficacy (%)” value with human IL-11 [1] was 81.4%; with murine IL-11 [2] it was 87.5%. Moreover, the results for the “RGA IC50” value in the experiment with human IL-11 [1] and with murine IL-11 [2] were 0.64 nM and 0.26 nM, respectively. Besides, the Kd was found to be 0.44 nM in the experiment with human IL-11 [3], 0.56 nM with murine IL-11 [4], 0.46 nM with cynomolgus IL-11 and 0.2 nM with rat IL-11.

B10: TPP-29396 (antibody, human IgG1, V domains shown)
VH: B1 VH
VL: B1 VL with G30W, N54E, S95F
On to B10, for which the “RGA Efficacy (%)” value in the experiment with human IL-11 [1] was 78.9%; in the experiment with murine IL-11 [2], 96.1%. Further, the results for the “RGA IC50” value with human IL-11 [1] and with murine IL-11 [2] were 0.65 nM and 0.39 nM, respectively. The dissociation constant Kd with human IL-11 [3] came out at 0.78 nM; with murine IL-11 [4], 0.7 nM; in the experiment with cynomolgus IL-11, 0.92 nM; with rat IL-11, 0.44 nM.

B11: TPP-29394 (antibody, human IgG1, V domains shown)
VH: B1 VH
VL: B1 VL with S95F
In the case of B11, the “RGA Efficacy (%)” value with human IL-11 [1] was 89.8%; with murine IL-11 [2], 93.9%. Moreover, the entries for the “RGA IC50” value in the experiment with human IL-11 [1] and with murine IL-11 [2] were 1.7 nM and 0.48 nM, respectively. The equilibrium dissociation constant (Kd) with human IL-11 [3] turned out to be 1.2 nM; with murine IL-11 [4], 0.65 nM; in the experiment with cynomolgus IL-11, 0.67 nM; with rat IL-11, 0.37 nM.

B12: TPP-29381 (antibody, human IgG1, V domains shown)
VH: B1 VH
VL: B1 VL with A91S, Y98S
With B12, the figures for the “RGA Efficacy (%)” value in the experiment with human IL-11 [1] and with murine IL-11 [2] were 75.3% and 94.8%, respectively. For the same molecule, the “RGA IC50” value with human IL-11 [1] stood at 0.48 nM; with murine IL-11 [2], 0.45 nM. The Kd with human IL-11 [3] turned out to be 0.62 nM; with murine IL-11 [4], 0.57 nM; with cynomolgus IL-11, 0.43 nM; with rat IL-11, 0.3 nM.

B13: TPP-29389 (antibody, human IgG1, V domains shown)
VH: B1 VH
VL: B1 VL with D32Y, N54E, S95P
Turning to B13, the “RGA Efficacy (%)” value with human IL-11 [1] was found to be 87.3%; with murine IL-11 [2] it was 97.4%. Besides, the “RGA IC50” value with human IL-11 [1] was found to be 0.84 nM; in the experiment with murine IL-11 [2], 0.29 nM. Besides, the Kd was 0.23 nM in the experiment with human IL-11 [3], 0.12 nM with murine IL-11 [4], 0.91 nM with cynomolgus IL-11 and 0.083 nM in the experiment with rat IL-11.

B14: TPP-29397 (antibody, human IgG1, V domains shown)
VH: B1 VH
VL: B1 VL with G30W, D32G, N54E
In the case of B14, the “RGA Efficacy (%)” value in the experiment with human IL-11 [1] was found to be 71%; in the experiment with murine IL-11 [2], 93.8%. For the same molecule, the “RGA IC50” value with human IL-11 [1] was found to be 0.53 nM; in the experiment with murine IL-11 [2] it was 0.31 nM. Besides, the Kd with human IL-11 [3] amounted to 0.35 nM; with murine IL-11 [4] it was 0.11 nM; with cynomolgus IL-11, 0.8 nM; with rat IL-11, 0.057 nM.

B15: TPP-29393 (antibody, human IgG1, V domains shown)
VH: B1 VH
VL: B1 VL with Y33L, N54E, S95D
Regarding B15, the results for the “RGA Efficacy (%)” value with human IL-11 [1] and in the experiment with murine IL-11 [2] were 87.3% and 96.2%, respectively. Moreover, the “RGA IC50” value with human IL-11 [1] stood at 0.61 nM; with murine IL-11 [2] it was 0.24 nM. Besides, the dissociation constant Kd with human IL-11 [3] came to 0.66 nM; with murine IL-11 [4] it was 0.39 nM; in the experiment with cynomolgus IL-11, 0.72 nM; with rat IL-11 it was 0.18 nM.

B16: TPP-29392 (antibody, human IgG1, V domains shown)
VH: B1 VH
VL: B1 VL with G30W, N54E, Y98S
As for B16, the “RGA Efficacy (%)” value in the experiment with human IL-11 [1] amounted to 80.2%; in the experiment with murine IL-11 [2], 89.3%. Further, the “RGA IC50” value with human IL-11 [1] was 1.2 nM. The dissociation constant (Kd) in the experiment with human IL-11 [3] is 0.92 nM; in the experiment with murine IL-11 [4] it was 1.1 nM; in the experiment with cynomolgus IL-11 it was 0.85 nM; in the experiment with rat IL-11, 0.95 nM.

(Values after patent US20240317847A1 (Bayer, published 2024).)
